Where two headings read alike, the source gives them in different places. A value given as a limit tells only on which side of the number the result lay.

A short description of data set [1]: NADH oxidation rate of purified HIDH enzymes with 2-oxoadipate (fluorescence / UV 340 nm). The format is biochemical. The conditions noted are these: for rate of NADH oxidation in the presence of 2-oxoadipate: 15 mM 2-oxoadipate, 100 μM NADH, 0.4 μg purified enzyme. The method, then: (§1) NADH, 2-oxoadipate, 2-oxoglutarate, 2-heptandioate, and MgCl2 were from Sigma. Standard reaction mixes contained 15 mM 2-oxoadipate, 100 μM NADH, and a reaction buffer with final concentrations of 20 mM MgCl2 and 500 mM HEPES, pH 7.3. NADH oxidation was monitored by the decrease in fluorescence with excitation of 340 nm and emission of 450 nm on a PolarSTAR Optima plate reader (BMG Labtech). Fluorescence monitored reactions were carried out in 10-μL volumes in a 384-well black microplate (Greiner 788076) covered with clear optical film. The levels of fluorescence were converted to NADH concentrations based on standards of NADH in reaction buffer containing BSA. Reactions with high amounts of NADH were monitored by the UV absorbance of NADH at 340 nm in 40-μL reaction volumes in clear 96-well plates.
(§2) Reaction rates are NADH oxidation per unit time per unit of purified enzyme or crude lysate and 1 Unit (U) is 1 μmolNADH min^−1 mgenzyme^−1. Rates are initial rates calculated by least squares linear regression on the first 10 minutes of the reaction. For KM determination, concentrations of substrate/cofactors at least 5×-higher than the KM were used, while the species of interest was varied in concentration; substrate/cofactor concentrations: 500 μM NADH; 15 mM 2-oxoadipate; 20 mM MgCl2. Reported α-hydroxyadipate (2-hydroxy adpic acid) Vmax values were obtained from 2-oxoadipate KM determination experiments. Michaelis-Menten KM and Vmax parameters were estimated by fitting data to a curve using nonlinear regression in GraphPad Prism 5.0 (GraphPad Software, La Jolla, Calif.).
(§3) Assays were performed with 40 ng/μL enzyme, 15 mM 2-oxoadipate, 100 μM NADH, 20 mM MgCl2 and 100 mM HEPES, pH 7.3 in 10 or 20 μL volumes in 384-well black microplates. NADH concentration was monitored by the decrease in fluorescence (excitation wavelength: 340 nm; emission wavelength: 450 nm) on a fluorescent plate reader. The fluorescence intensities were converted to NADH concentrations based on NADH standards. Reactions with high amounts of NADH (>300 μM) were monitored by the UV absorbance of NADH at 340 nm in a 40 μL reaction volume in a clear 96-well plate on the same plate reader. Reactions with ScHIDH were carried out at 25° C. and reactions with TtHIDH were carried out at 45° C. Reported rates are initial rates from the first 10 minutes of reaction. For KM determination, concentrations of substrate at least 5×-higher than the KM were used (for NADH, 500 μM; for 2-oxoadipate, 15 mM) while the substrate of interest was varied in concentration. KM and Vmax were estimated by fitting data to equation (1) using nonlinear regression, where x is substrate concentration and y is the rate. y=Vmax·x/KM+x (1) Rate data for ScHIDH-R143C, -R143H, and -R143K are summarized in Table 3.

Data set [2] is described as follows: NADH oxidation rate of purified HIDH mutants with 2-oxoglutarate as substrate. The class given is biochemical. The conditions noted are these: ScHIDH-R143H. Here is the method: as §1
(§4) Reaction rates are NADH oxidation per unit time per unit of purified enzyme or crude lysate and 1 Unit (U) is 1 μmolNADH min^−1 mgenzyme^−1. Rates are initial rates calculated by least squares linear regression on the first 10 minutes of the reaction. For KM determination, concentrations of substrate/cofactors at least 5×-higher than the KM were used, while the species of interest was varied in concentration; substrate/cofactor concentrations: 500 μM NADH; 15 mM 2-oxoadipate; 20 mM MgCl2. […]

Data set [3] in a line: NADH oxidation rate of purified ScHIDH-R143H with 2-oxoheptanedioic acid as substrate. The format is biochemical. The method, then: as §1, §4
The nature of data set [4]: NADH oxidation with 2-oxoadipate plus CO2 added as NaHCO3 (reductive carboxylation). The class given is biochemical. Here is the method:
as §1, §2

The nature of data set [5]: Enantiospecific LC-MS/MS quantification of (R)- and (S)-2-hydroxyadipate product. The conditions noted are these: for concentration of (R)-2-hydroxyadipate after 10 h: ScHIDH, initially 2 mM NADH and 2 mM 2-oxoadipate. The class given is biochemical. Here is the method: Quantitative, enantiospecific LC-MS/MS was performed based on the procedure described for 2-hydroxyglutarate. Jin et al., PLoS one 6, e16812: 1-8 (2011); Struys, et al., Clin. Chem. 50: 1391-1395 (2004). To 20 μL of reaction mix, 2 μL of 130 μg/mL of a racemic mixture of [3,3,4,4-^2H4]-2-hydroxyglutarate (internal standard) in water was added and the mixture dried by vacuum centrifuge (50° C., 15 min). The dry residue was treated with 50 mg/mL freshly prepared diacetyl-L-tartaric anhydride (Sigma) in dichloromethane/glacial acetic acid (4:1 by volume) and heated (75° C., 30 min). After drying (50° C., 15 min) the residue was dissolved in 100 μL of LC mobile phase A (see below) for analysis. An Agilent 1200 series HPLC (Santa Clara, Calif.) was used for liquid chromatography (LC) and a Sciex/Applied Biosystems API 3200 QTrap (Carlsbad, Calif.) was used for triple quadrupole mass spectrometry (MS/MS). Mobile phase A: water, 3% acetonitrile, 280 μL ammonium hydroxide (^˜25%), pH adjusted to 3.6 with formic acid (^˜98%). Mobile phase B: methanol. Analytical column: Kinetex C-18, 150×4.6 mm, 2.6 μm, and SafeGuard C-18 4×3 mm guard-column from Phenomenex (Torrance, Calif.). Column temperature: 45° C. Elution gradient at 1 mL/min flow rate: 0-1 min 0% B, 1-2 min 0-100% B, 2-3.5 min 100% B, 3.5-4 min 100-0% B, 4-10 min 0% B. Injection volume: 10 μL. Q1/Q3 (m/z) transitions were monitored: 377/161, 2-hydroxyadipate (2HA) and 367/151, [3,3,4,4-^2H4]-2-hydroxyglutarate (2HG-d4). To calibrate, 0, 0.16, 0.54, 1.8, 6, and 20 μg/mL 2-hydroxyadipate (Sigma), synthesized as described above, was analyzed in reaction buffer. (R)- and (S)-enantiomers were discriminated based on time of elution from the HPLC column, using the relative elution time for (R)-2-hydroxyglutarate compared to the racemic mixture of 2-hydroxyglutarate described previously to identify the (R)-2-hydroxyadipate enantiomer. Jin et al., PLoS one 6, e16812: 1-8 (2011). Standards were analyzed alongside experimental samples. Accuracy acceptance criteria were 85% for all but the lowest level (0.16 μg/mL, 80%).

Data set [6] is described as follows: Kinetic characterization of ScHIDH mutants: KM 2-oxoadipate and Vmax. The class given is biochemical. Here is the method: as §2, §3
Data set [7] in a line: Kinetic characterization of ScHIDH mutants: KM NADH. The format is biochemical. Here is the method:
as §2, §3

A short description of data set [8]: Magnesium dependence of ScHIDH-R143H. The class given is biochemical. Here is the method: as §3
ScHIDH-R143H activity was assayed at various MgCl2 concentrations under the standard reaction conditions described in Example 11. The rate is relative to the rate at 20 mM MgCl2. […]

The nature of data set [9]: pH dependence of ScHIDH-R143H. The class given is biochemical. The method, then: as §3
ScHIDH-R143H activity was assayed in HEPES buffer at various pH under the standard reaction conditions described in Example 11, above. The rate is relative to the rate at pH 7.4. […]

For data set [10] the following is noted: ScHIDH, literature; read-out: KM,HCO3, previous observation; cited from earlier work.
For data set [11] the following is noted: literature (Lin et al. 2007); cited from earlier work.
For data set [12] the following is noted: literature; cited from earlier work.

B1: ScHIDH-R143H: Saccharomyces cerevisiae homoisocitrate dehydrogenase R143H mutant, an (R)-2-hydroxyadipate dehydrogenase (protein)
chain: MFRSVATRLSACRGLASNAARKSLTIGLIPGDGIGKEVIPAGKQVLENLNSKHGLSFNFIDLYAGFQTFQETGKALPDETVKVLKEQCQGALFGAVQSPTTKVEGYSSPIVALRREMGLFANVRPVKSVEGEKGKPIDMVIVHENTEDLYIKIEKTYIDKATGTRVADATKRISEIATRRIATIALDIALKRLQTRGQATLTVTHKSNVLSQSDGLFREICKEVYESNKDKYGQIKYNEQIVDSMVYRLFREPQCFDVIVAPNLYGDILSDGAAALVGSLGVVPSANVGPEIVIGEPCHGSAPDIAGKGIANPIATIRSTALMLEFLGHNEAAQDIYKAVDANLREGSIKTPDLGGKASTQQVVDDVLSRL
modifications: ScHIDH R143H polypeptide
notes: Saccharomyces cerevisiae homoisocitrate dehydrogenase R143H mutant, an (R)-2-hydroxyadipate dehydrogenase
For orientation: Km means the concentration of substrate that gives half-maximal velocity. One may read the Vmax as the top rate of the reaction or transport when substrate is in excess. Regarding B1, the “rate of NADH oxidation in the presence of 2-oxoadipate” value in data set [1] (ScHIDH) amounted to 0.0096±0.000014 U. In addition, the “decrease of NADH concentration after 10 h compared to a buffer control” value in data set [1] (ScHIDH, initially 2 mM NADH and 2 mM 2-oxoadipate, 10 h) came out at 0.62 mM. Moreover, in data set [1] (ScHIDH-R143H, no substrate), the “NADH oxidation rate, reaction containing no substrate” value is below 0.001 U. In addition, the “NADH oxidation rate in the presence of 15 mM 2-oxoglutarate” value in [2] is below 0.001 U. In addition, in [3], the “NADH oxidation rate in the presence of 15 mM 2-oxoheptanedioic acid” value is below 0.001 U. Also, the “stimulation by addition of NaHCO3” value in [4] (up to 60 mM NaHCO3) is “not stimulated”. Besides, in [5], the “concentration of (R)-2-hydroxyadipate after 10 h” value amounted to 0.97 mM. This molecule showed an Enantiomeric Excess in data set [5] (Table 3, (R)-2-hydroxyadipate product) above 99.1%. The Km in [6] (Table 3, 40 ng/μL enzyme, 500 μM NADH, 20 mM MgCl2, pH 7.3, 25° C.) was determined as 2000 µM; in data set [6] (purified enzyme) it was 1400 ± 250 µM; in data set [7] (Table 3, 15 mM 2-oxoadipate, 20 mM MgCl2, pH 7.3, 25° C.), 88 µM; in data set [7] (purified enzyme), 85 ± 21 µM; in data set [8] (Table 3, read-out: KM MgCl2) it was 1200 µM; in data set [8] (various MgCl2 concentrations, standard conditions, read-out: KM for MgCl2), 1100 µM. In [6] (Table 3, from 2-oxoadipate KM experiments), the maximal velocity (Vmax) was determined as 0.036 µmol/min/mg. In addition, in data set [6] (purified enzyme), the “maximal velocity (Vmax)” value is recorded as 0.020±0.0027 U. The pH optimum turned out to be 7.4 in data set [9] (HEPES buffer at various pH, standard conditions) and 7.4 in [9] (Table 3, HEPES buffer).

B2: ScHIDH-WT: wild type Saccharomyces cerevisiae homoisocitrate dehydrogenase (encoded by LYS12) (protein, listed as Saccharomyces cerevisiae)
chain: MFRSVATRLSACRGLASNAARKSLTIGLIPGDGIGKEVIPAGKQVLENLNSKHGLSFNFIDLYAGFQTFQETGKALPDETVKVLKEQCQGALFGAVQSPTTKVEGYSSPIVALRREMGLFANVRPVKSVEGEKGKPIDMVIVRENTEDLYIKIEKTYIDKATGTRVADATKRISEIATRRIATIALDIALKRLQTRGQATLTVTHKSNVLSQSDGLFREICKEVYESNKDKYGQIKYNEQIVDSMVYRLFREPQCFDVIVAPNLYGDILSDGAAALVGSLGVVPSANVGPEIVIGEPCHGSAPDIAGKGIANPIATIRSTALMLEFLGHNEAAQDIYKAVDANLREGSIKTPDLGGKASTQQVVDDVLSRL
Turning to B2, the “rate of NADH oxidation in the presence of 2-oxoadipate” value in [1] (ScHIDH) is recorded as below 0.001 U. Also, the “rate of NADH oxidation when CO2 was added as HCO3” value in data set [4] (ScHIDH, 2-oxoadipate, NADH) turned out to be 0.061±0.0090 U. For the same molecule, the Km was 10000 ± 3700 µM in [4] (ScHIDH, read-out: KM,HCO3) and 16300 µM in data set [10]. Besides, in data set [5], the “concentration of (R)-2-hydroxyadipate after 10 h” value is listed as “no 2-hydroxyadipate accumulation was observed”. Moreover, the “rate for homoisocitrate relative to isocitrate” value in data set [11] is 216 fold.

B3: TtHIDH-WT: wild type Thermus thermophilus homoisocitrate dehydrogenase (protein, listed as Thermus thermophilus)
chain: MAYRICLIEGDGIGHEVIPAARRVLEATGLPLEFVEAEAGWETFERRGTSVPEETVEKILSCHATLFGAATSPTRKVPGFFGAIRYLRRRLDLYANVRPAKSRPVPGSRPGVDLVIVRENTEGLYVEQERRYLDVAIADAVISKKASERIGRAALRIAEGRPRKTLHIAHKANVLPLTQGLFLDTVKEVAKDFPLVNVQDIIVDNCAMQLVMRPERFDVIVTTNLLGDILSDLAAGLVGGLGLAPSGNIGDTTAVFEPVHGSAPDIAGKGIANPTAAILSAAMMLDYLGEKEAAKRVEKAVDLVLERGPRTPDLGGDATTEAFTEAVVEALKSL
Turning to B3, in data set [4] (TtHIDH, 2-oxoadipate and NADH, CO2 added as NaHCO3), the “rate of NADH consumption with NaHCO3 added” value is 0.14±0.022 U. The “increase of (R)-2-hydroxyadipate concentration after 2 h” value in data set [5] (TtHIDH, 100 μM NADH, 15 mM 2-oxoadipate, 45° C., 2 h) is given as “not observed”. For the same molecule, the “efficiency for 2-oxoglutarate relative to 2-oxoadipate” value in [12] is 20 times.

The record behind these values is patent US8691960B2, “Oxidoreductases for enantioselective reactions” (Duke University, priority 2012, dated 2014).
